In the nanobody polyreactivity screen of Harvey et al. (2022):

Test: yeast display, Sf9 membrane polyspecificity reagent, FACS + sequencing; frameworks hold sequencing errors
Method in brief: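 A nanobody's polyreactivity label depends on the gate it was sorted from. Yeast display cells were stained with 10% biotinylated, detergent-solubilized Sf9 membrane reagent for 1 hour at 4 °C, enriched on streptavidin microbeads and sorted by FACS. The low and high (top ~1%) gates were set on anti-HA fluorescence for expression and streptavidin fluorescence for reagent binding.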

Row | Sequence | polyreactivity (PSR sort gate)
1 | QVQLVESGGALVQAGGSLRLSCAASGSIFYNAMGWYRQAPGKERELVAAISWRGTRTYYADSVKGRFTISRDNAKNTVYLQMNSLKPEDTAVYYCNKDYKYGVAYTRYDYWGQGTQVTVSS | high polyreactivity
2 | QVQLVESGGALVQAGGSLRLSCAASGSTFDDNAMGWYRQAPGKERELVASITYRGGSTYYADSVKGRFTISRDNAKNTVYLQMNSLKPEDTAVYYCAKGHYFKYDYWGQGTQVTVSS | low polyreactivity
3 | QVQLVESGGALVQAGGSLRLSCAASGSTFNRNAMGWYRPAPGKERELVAAISSRGGSTFYADSVMGRFTISRDNATNTVYLQMNSLKPEDTAVYYCNALIVSSWVRYDYWRQGTQVTVSS | high polyreactivity
4 | QVQLVESGGALVQAGGSLRLSCAASGSTFNRYAMGWYRQAPGKERELVAAISASGGSTYYADSVKGRFTISRDNAKNTVYLQMNSLKPEDTAVYYCATLHYVGQEHDYWGQGTQVTVSS | low polyreactivity
5 | QVQLVESGGALVQAGGSLRLSCAASGSTFRRYAMGRYRQAPGKERELVAAISYGGGTTYYADSVKGRFTISRDNAKNTVYLQMNSLKPEDTAVYYCAARGPYGYVLLYYWGQGTQVTVSS | high polyreactivity
6 | QVQLVESGGALVQAGGSLRLSCAASGSTIYQNAMGWYRQAPGKERELVAVISSGGSTYYADSVKGRFTISRDNAKNTVYLQMNSLKAEDTAVYYCAADRGTVSYLYSPRAVDYWGQGTQVTVSS | low polyreactivity
7 | QVQLVESGGALVQAGGSLRLSCAASGSTYDSYSMGWYRKAPGKERELVAAITRRGTRTYYADSVKGRFTISRDNAKNTVYLQMNSLKREDTAVYYCAADRGYRLQSYGYWGQGTQVTVSS | high polyreactivity
8 | QVQLVESGGALVQAGGSLRLSCAASGYTFSKNTMGWYRQAPGKEREFVAAINWSGGSTYYADSVKGRFTISRDNEKNTVYLQMNSLKPEDTAVYYCAARRGGRRGYDYWGQGTQVTVSS | high polyreactivity
9 | QVQLVESGGALVQAGGSLRLSCAASRSIFSNAMGWYRQAPRKERELDAAITGRGGRTYYADSVKGRFTISRDNAKYTVYLQMNSLNPEDTAVYYCARDSPWSSRYRYRAFDYWGQGTQVTVSS | high polyreactivity
10 | QVQLVESGGALVQAGGSLRLSCAPSGFTFMRYAMGWYRQAPGKERELDAAIRGTGTSTYYADSVKVRFTISRDNAKNTVYLQMNSLNPEDTAVYYCNKVAGRSPYTRYDYWAQGTQVTVSS | low polyreactivity
11 | QVQLVESGGALVQAGRSLRLSCAASGSIFSSYAMGRYRQAPGKERELVAAISRSGGRTYYADSVKGRFTITRDNAKNTVYLQMNSLKTEDTAVYYCAARRVLGEYGYWGQGTQVTVSS | high polyreactivity
12 | QVQLVESGGALVQAGVSLRLSCAASGSIFRFYAMGWNKQAPGKERELVAAITSGGSTNYADSVKGRFTISRDNEKNTVYLQMNSLKPEDTAVFYCAAELVFFFIFDYWGQGTQVTVSS | low polyreactivity
13 | QVQLVESGGCIVQAGGSLRLSCAATGRTFYIYAMGWYRQPPGKESELVATITRGGSTNYADSVKGRFTSSRDNAKNTVYLQMNSLKPVDTAVYYCAAESYFTNWRNRYDYWGQGSQVTVSS | high polyreactivity
14 | QVQLVESGGCIVQEGGSLRLSGAASGSTIRGNAMGWYRHAHGQEREFVADITRNGGRTYYADSVKGRFTISRDNAKNTVYLQMNSLKPEDTAVSYCAKRDAYFVSQRNMDYWGQGTQVTVSS | high polyreactivity
15 | QVQLVESGGCLDQAGGSLRLSCAASGITFGPYAMGWYSQAPGKERELVAAITWGGGSTYYADSVKGRFTLSRDNAKNTDYLLMNSLKPEDTADYYCNAEGSTTSRYLPYDYWGQGTQVTVSS | low polyreactivity
16 | QVQLVESGGCLFQAGGSLRLSCAASGFIFGTYAIGWYRQAPGKERELVAAISVGRGSTYYADSVKGRFTISRDNAKNTVYLQMNSLKPEDTAVYYCAAVQLYQKHQITYVAHEYWGHGTQVTVSS | low polyreactivity
17 | QVQLVESGGCLVKAGGSLRLSCAASGSTFHYYPMGWYRQAPGKERELFAAISTSGVRTYYADSVKGRFTISRDNAKNTVYLQMNRLKPEDTAVYYCAARRGYVKGKTYDYWGQGSQVTVSS | high polyreactivity
18 | QVQLVESGGCLVQAGGRLRLSFAASGLTFEQYAMGWYRQAPGKERELVPAISRRGTSTYYADSVKGRFTISRDNAKNTVFLQMNSLKPEDTAVYYCNAGWWYLGSPFDRDYWGQGTQVTVSS | high polyreactivity
19 | QVQLVESGGCLVQAGGSHRLSCAASGSIFKYYTMGWYRQAPGKERELDAAITTRGTSTNYADSVKGRFTISRDNAKHTVYFQMNSLKPEDTAVYYCAARLSSLISMNYWGQGTQVTVSS | high polyreactivity
20 | QVQLVESGGCLVQAGGSLRISCAASGLTFKGYTMGWYRQAPGKEREFVAAITGGVGSTYYADSVKGRFTISRDNAKNTVYVHMKSLQPEDTAVYYCNSVSYGYTDLYIFYTGYYYWGQGTQVTVSS | low polyreactivity
21 | QVQLVESGGCLVQAGGSLRLICAASGRTFIAKAMGWYRQAPGKERELVAVITLNGGSTYYADSVKGRFTISRDNAKSTVYLQMNSLKPEDTAVYYCAAGRYYNLRATHGYWGQGTQVTVSS | low polyreactivity
22 | QVQLVESGGCLVQAGGSLRLISAASGSTFQRYAIGWYRQAPGKERELVAAITWSNGSTYYADSVKGRFTISRDNAKNTVYLQMISLKPEDTAVYYCAAEVHFGGDYWGQGTQVTVSS | low polyreactivity

Row | Sequence | polyreactivity (PSR sort gate)
23 | QVQLVESGGCLVQAGGSLRLSCAASAFIFVGNDMGLYRQAPGKEREFVAAISSGGTTNYADSVKGRFTISRDNAKNTVYLQMNSLKPEDTAVYYCGADYDYRQGYDSVHLDYWVQGTQVTVSS | low polyreactivity
24 | QVQLVESGGCLVQAGGSLRLSCAASGFIFAYYAMGWYRQARGKERELVAAISYSGSTKYSDSVKGRFTISRDNSKNTVNLQMNSLKPEDTAVYYCAADRVWGTPQAYVPSQFDYWGQGTQVTVSS | low polyreactivity
25 | QVQLVESGGCLVQAGGSLRLSCAASGFILSGNTMGWYRQAPGKERELVAGINDDSSTYYADSVKGGFTISRDNAKNTVYLQMNSLKPEDTAVYYCNAGQSWYPSWYYYWGQGTQVTVSS | low polyreactivity
26 | QVQLVESGGCLVQAGGSLRLSCAASGGIFPGNAMGWYRQAPGKERELVATISYSGGSTYYADSVKGRFTISRDNAKNTVYLQMNSLKPEDTAVYYCAARGYKPTRSRRTEYGYWGQGTQVTVSS | high polyreactivity
27 | QVQLVESGGCLVQAGGSLRLSCAASGIIFDDYAMGWYRQAPGKERELVAAISVSGGSTYYADSVKGRFTISRDNAKNTVYLQMKSLKPEDTAVYYCAARLRQPYSRGNYWGQGTQVTVSS | high polyreactivity
28 | QVQLVESGGCLVQAGGSLRLSCAASGIIFTLYAMGWYRQAPGKEREIVAAISGSGGSTYYADSVKGRFTISRDNAKNTVYLQMNSLKPEDTAVYYCAARGVRGTGLDSRMYYWGQGTQVTVSS | high polyreactivity
29 | QVQLVESGGCLVQAGGSLRLSCAASGIIFYRYAMGWYRQAPGKERELVAAITYSGGRTYYADSVKARFTISRDNAKNTVYLQMNSLKTEDTAVSDCAAAGRFGDYWGQGTQVTVSS | high polyreactivity
30 | QVQLVESGGCLVQAGGSLRLSCAASGITFGRNTMGWSRQAPGKERELVAAIDSGGNTYADSVKGRFTISRDNAKNTVYLQMNSLKPEDTAVYYCAVDGGEFSSYGYWVQGTQVTVSS | low polyreactivity
31 | QVQLVESGGCLVQAGGSLRLSCAASGITFRYYPMGWYRQAPGKERELVATISTNGGTTYYADSVKGRFTISRDNAKNTVYLQMNSLKPEDTAVYYCNRKIYVSSARYPSEYGYWGQGTQVTVSS | high polyreactivity
32 | QVQLVESGGCLVQAGGSLRLSCAASGLIFYTYAMGWYRQAPGKERELVASISSGGDSTYYADSVKGRFTISRDNAKNTVYLQMNSLKPEDTAVYYCNADYYYSYPYTYYYWGQGTQVTVSS | low polyreactivity
33 | QVQLVESGGCLVQAGGSLRLSCAASGLLFYFYAMGWYRQAPGKEREFVAAISSGGDTYYADSVKGRFTISRDNSKNTVYLQMNSLKPVDTAVYYCAVGTVYLTYRGYEYWGQGTQVTVSS | high polyreactivity
34 | QVQLVESGGCLVQAGGSLRLSCAASGNIFGIYTMGLYTHAPGKERELVASIRTGGSTNYADSVKGRFTISRDNAKNTDYLQMNSLKPEDSSVYYCNARKLFSSSYGYWGQGTQVTVSS | high polyreactivity
35 | QVQLVESGGCLVQAGGSLRLSCAASGRIFAWYAMGWYRQAPGKERELVAAISDSGGSTYYADSVKGRFTISRDNAKNTVYLQMNSLKQEDTAVYYCAADQVVYSAYWSDHYDYWGQGTQVTVSS | low polyreactivity
36 | QVQLVESGGCLVQAGGSLRLSCAASGRIFGVYAMGWYRQAPGKERELVAAISEGGGSTNYADSVKGRFTISRDNANNTVYLQMNSLKPEDTAVYYCAATSRTGVRRYYSWGQGTQVTVSS | low polyreactivity
37 | QVQLVESGGCLVQAGGSLRLSCAASGRIFLPYAMVWYRQAPGKERELVASITRRGGTTYYADSVKGRFTISRDNAKNTVYLQMNSLKPADSAVYYCAKESWPYGTRGYYHYEYWGQGTQVTVSS | high polyreactivity
38 | QVQLVESGGCLVQAGGSLRLSCAASGRIFQRYAMGWYRQAPGKERELVAGITSAGGSTYYADSVKGRFTISRDNAKNTVYLQMKRLKPEDTAVYYCNAGGELRYYGYRAGGTTRSYDYWGQGTQVTVSS | low polyreactivity
39 | QVQLVESGGCLVQAGGSLRLSCAASGRIFRTYTMGWYRQAPGKERELVAAITWNGGSTYYADSVKGRFTISRDNAKNTVYLQMNSLKPEDTAVYYCIADRHYSAYPLYDYWGQGTQVTVSS | low polyreactivity
40 | QVQLVESGGCLVQAGGSLRLSCAASGRIFSSYAMGWYRQAPGKERELVAAIRSSGDRTYYADSVKGRFTISRDNAKNTVYFQMNSLKPEDTAVYYCAADLRRFQSYYYWGQGTQVTVSS | high polyreactivity
41 | QVQLVESGGCLVQAGGSLRLSCAASGRISPDYAMGWYRQAPGTERELVATISSGAGTTYYADSVKGRFTISRDNAKNTVYLQMNSLKPEDTAVYYCAAEDPSEFDYWGQGTQVTVSS | low polyreactivity
42 | QVQLVESGGCLVQAGGSLRLSCAASGRTFKQYAIGWSRQAPGKERELVAAITSGGSTYYADSVKGRFTISRDNAKNTVSLHMNSLKPEDNAVYYCNKESYFDTYRRYDSWGQCTQVTVSS | low polyreactivity
43 | QVQLVESGGCLVQAGGSLRLSCAASGRTFPYNVMGWYRQAPGKERELDAGITGSGDSTFYADSVKGRFTISRDNAKNTFYLQMNSLNPDDTSVYYCAARYRTLNDGYIRNYWGQGTQVTVSS | low polyreactivity
